The values that follow come from the supplement of paper PMC10598134.

The series in a line: collision cross section of modified peptide (TIMS, N2, iRT-aligned); higher = larger / more extended gas-phase ion. Put shortly:
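Synthetic peptide pools (~100 fmol/µL in 2% acetonitrile/0.1% formic acid, iRT standard spiked 1:40) were separated on a 120-min nanoflow C18 gradient at 60 °C. They were analysed on a timsTOF Pro/HT (dda-PASEF, nitrogen, ~2.4 mbar) and identified with MaxQuant. 1/K0 was calibrated with three reference ions and aligned run-wise to the median iRT peptide deviation. Collision cross section came from the Mason-Schamp equation, averaging 1–3 technical replicates of the most abundant feature per charge state.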

The mark [1] stands for this setting: charge state: 2, modification: Formyl.
Setting [2] is: charge state: 2, modification: Glutarylation.
The mark [3] stands for this setting: charge state: 3, modification: Glutarylation.
The mark [4] stands for this setting: charge state: 2, modification: GlyGly (K).
Setting [5] is: charge state: 3, modification: GlyGly (K).
[6] abbreviates: charge state: 2, modification: Malonyl.
Setting [7] is: charge state: 3, modification: Malonyl.
Setting [8] is: charge state: 2, modification: Methyl (K).
Setting [9] is: charge state: 3, modification: Methyl (K).
[10] abbreviates: charge state: 2, modification: Propionyl.
The mark [11] stands for this setting: charge state: 2, modification: Succinyl.
Setting [12] is: charge state: 3, modification: Succinyl.
Setting [13] is: charge state: 2, modification: Trimethyl (K).
Where [14] appears, read: charge state: 3, modification: Trimethyl (K).
Setting [15] is: charge state: 2, modification: hydroxyisobutyryl.
[16] abbreviates: charge state: 3, modification: hydroxyisobutyryl.
Where [17] appears, read: charge state: 2, modification: Nitro (Y).
Where [18] appears, read: charge state: 2, modification: Phospho (Y).
The mark [19] stands for this setting: charge state: 2, modification: Acetyl (K).
Setting [20] is: charge state: 2, modification: Biotin.
The mark [21] stands for this setting: charge state: 2, modification: Butyryl.
The mark [22] stands for this setting: charge state: 2, modification: Crotonyl.
The mark [23] stands for this setting: charge state: 2, modification: Dimethyl (K).
The mark [24] stands for this setting: charge state: 3, modification: Dimethyl (K).
The mark [25] stands for this setting: charge state: 2, modification: HexNAc (ST).
Setting [26] is: charge state: 3, modification: HexNAc (ST).

± gives the standard deviation.

As for LQEKVESAQSEQK [_LQEK(Formyl)VESAQSEQK_], the collision cross section reads like this: under setting [1], 410.52 ± 1.2 Å²; (charge state: 3, modification: Formyl) 496.47 ± 0.53 Å².

Turning to “LQEKVESAQSEQK [_LQEK(Gluratylation)VESAQSEQK_]”, the collision cross section runs as follows: under setting [2], 421.97 ± 0.48 Å²; under setting [3], 507.02 ± 1 Å².

Regarding “LQEKVESAQSEQK [_LQEK(GlyGly (K))VESAQSEQK_]”, the collision cross section is, setting by setting: under setting [4], 427.55 ± 1.4 Å²; under setting [5], 508.34 ± 0.87 Å².

Consider “LQEKVESAQSEQK [_LQEK(Malonyl)VESAQSEQK_]”, for which the collision cross section runs as follows: under setting [6], 413.7 ± 1.6 Å²; under setting [7], 504.23 ± 2.2 Å².

“LQEKVESAQSEQK [_LQEK(Methyl (K))VESAQSEQK_]”: the collision cross section by setting is: under setting [8], 410.87 ± 2 Å²; under setting [9], 480.74 ± 20 Å².

As for “LQEKVESAQSEQK [_LQEK(Propionyl)VESAQSEQK_]”, the collision cross section by setting is: under setting [10], 417.86 ± 1.3 Å²; (charge state: 3, modification: Propionyl) 502.35 ± 1.5 Å².

On to “LQEKVESAQSEQK [_LQEK(Succinyl)VESAQSEQK_]”, for which the collision cross section runs as follows: under setting [11], 417.9 ± 0.86 Å²; under setting [12], 502.42 ± 0.72 Å².

On to “LQEKVESAQSEQK [_LQEK(Trimethyl (K))VESAQSEQK_]”, for which the collision cross section reads like this: under setting [13], 419.24 ± 2.2 Å²; under setting [14], 470.87 ± 1.8 Å².

With “LQEKVESAQSEQK [_LQEK(hydroxyisobutyryl)VESAQSEQK_]”, the collision cross section is reported as 422.92 ± 0.52 Å² under setting [15] and 502.35 ± 2.1 Å² under setting [16].

Under setting [17], LQIASDENYK [_LQIASDENY(Nitro (Y))K_] gave a collision cross section of 364.55 ± 1.2 Å².

Consider LQIASDENYK [_LQIASDENY(Phospho (Y))K_], for which the collision cross section under setting [18] amounted to 374.64 ± 0.77 Å².

Sequence LQLEIDQKK [_LQLEIDQK(Acetyl (K))K_] returned a collision cross section under setting [19] of 364.82 ± 0.76 Å².

Turning to LQLEIDQKK [_LQLEIDQK(Biotin)K_], the collision cross section under setting [20] is 382.89 ± 0.23 Å².

In turn, LQLEIDQKK [_LQLEIDQK(Butyryl)K_] yielded a collision cross section under setting [21] of 370.32 ± 1.2 Å².

For LQLEIDQKK [_LQLEIDQK(Crotonyl)K_], under setting [22], the collision cross section is 366.56 Å².

Turning to LQLEIDQKK [_LQLEIDQK(Dimethyl (K))K_], the collision cross section by setting is: under setting [23], 364.14 ± 0.52 Å²; under setting [24], 427.16 ± 2.1 Å².

LQLEIDQKK [_LQLEIDQK(Formyl)K_]: the collision cross section under setting [1] is given as 362.42 ± 1 Å².

In turn, LQLEIDQKK [_LQLEIDQK(Gluratylation)K_] came in with a collision cross section under setting [2] of 373.2 ± 0.7 Å².

As to LQLEIDQKK [_LQLEIDQK(GlyGly (K))K_], the collision cross section turned out to be 376.75 ± 0.46 Å² under setting [4] and 433 ± 2.7 Å² under setting [5].

The sequence LQLEIDQKK [_LQLEIDQK(Malonyl)K_] gave a collision cross section under setting [6] of 367.76 ± 0.011 Å².

LQLEIDQKK [_LQLEIDQK(Methyl (K))K_]: the collision cross section is given as 367.47 ± 2.8 Å² under setting [8] and 429.39 ± 5.2 Å² under setting [9].

LQLEIDQKK [_LQLEIDQK(Propionyl)K_] came in with a collision cross section under setting [10] of 368.05 ± 0.33 Å².

As for LQLEIDQKK [_LQLEIDQK(Succinyl)K_], the collision cross section under setting [11] was 370.18 ± 1.1 Å².

LQLEIDQKK [_LQLEIDQK(Trimethyl (K))K_] displayed a collision cross section under setting [13] of 370.49 ± 1.6 Å² and a collision cross section under setting [14] of 433.51 ± 3.7 Å².

Under setting [15], “LQLEIDQKK [_LQLEIDQK(hydroxyisobutyryl)K_]” returned a collision cross section of 371.26 ± 0.27 Å².

On to “LQLGTPPPLLAARLVPPR [_LQLGTPPPLLAAR(Citrullination (R))LVPPR_]”, for which, under “charge state: 3, modification: Citrullination (R)”, the collision cross section is listed as 576.16 ± 0.34 Å².

Consider LQNSYQPTNK [_LQNSY(Nitro (Y))QPTNK_], for which, under setting [17], the collision cross section worked out at 362.69 ± 0.94 Å².

In turn, LQNSYQPTNK [_LQNSY(Phospho (Y))QPTNK_] yielded a collision cross section under setting [18] of 366.81 ± 0.064 Å².

In the case of “LRQQLQAK [_LR(Citrullination (R))QQLQAK_]”, the collision cross section (charge state: 2, modification: Citrullination (R)) stood at 337.45 ± 0.28 Å².

With LRQQLQAK [_LR(Methyl (R))QQLQAK_], the collision cross section runs as follows: (charge state: 2, modification: Methyl (R)) 356.39 ± 9.6 Å²; (charge state: 3, modification: Methyl (R)) 413.25 ± 2 Å².

Take LSEHATAPTR [_LSEHATAPT(HexNAc (ST))R_]: the collision cross section reads like this: under setting [25], 370.75 ± 0.68 Å²; under setting [26], 450.64 ± 0.17 Å².

Turning to “LSESHPDATEDLQR [_LS(HexNAc (ST))ESHPDATEDLQR_]”, the collision cross section under setting [26] is on record as 486.6 ± 0.17 Å².

In the case of “LSFGLEDEPLETATK [_LSFGLEDEPLET(HexNAc (ST))ATK_]”, the collision cross section reads like this: under setting [25], 457.66 ± 0.56 Å²; under setting [26], 480.97 Å².

Under setting [17], LSITGTYDLK [_LSITGTY(Nitro (Y))DLK_] registered a collision cross section of 368.48 ± 0.22 Å².

As to LSITGTYDLK [_LSITGTY(Phospho (Y))DLK_], the collision cross section under setting [18] is given as 381.43 ± 0.65 Å².

Under setting [25], “LSQEDPDYGIR [_LS(HexNAc (ST))QEDPDYGIR_]” had a collision cross section of 396.72 ± 0.76 Å².

For LSSETYSQAK [_LSSETY(Nitro (Y))SQAK_], the collision cross section under setting [17] stood at 352.74 ± 0.47 Å².

Sequence LSSETYSQAK [_LSSETY(Phospho (Y))SQAK_] came in with a collision cross section under setting [18] of 357.2 ± 0.065 Å².

On to “LSTPPPLAEEEGLASR [_LS(HexNAc (ST))TPPPLAEEEGLASR_]”, for which the collision cross section by setting is: under setting [25], 448.88 Å²; under setting [26], 503.24 Å².

“LTEKELAEAASK [_LTEK(Acetyl (K))ELAEAASK_]” returned a collision cross section under setting [19] of 387.12 ± 0.45 Å².

Under setting [20], LTEKELAEAASK [_LTEK(Biotin)ELAEAASK_] came in with a collision cross section of 418.47 ± 3 Å².

LTEKELAEAASK [_LTEK(Butyryl)ELAEAASK_] returned a collision cross section under setting [21] of 394.05 ± 1.5 Å² and a collision cross section (charge state: 3, modification: Butyryl) of 455.88 Å².

With LTEKELAEAASK [_LTEK(Crotonyl)ELAEAASK_], the collision cross section under setting [22] turned out to be 394.89 ± 2.4 Å².

For the sequence “LTEKELAEAASK [_LTEK(Dimethyl (K))ELAEAASK_]”, the collision cross section reads like this: under setting [23], 397.3 ± 0.55 Å²; under setting [24], 456.37 ± 5.1 Å².

LTEKELAEAASK [_LTEK(Formyl)ELAEAASK_]: the collision cross section under setting [1] was determined as 382.92 ± 0.9 Å².

With “LTEKELAEAASK [_LTEK(Gluratylation)ELAEAASK_]”, the collision cross section is 395.13 ± 2.6 Å² under setting [2] and 453.47 ± 1.2 Å² under setting [3].

For “LTEKELAEAASK [_LTEK(GlyGly (K))ELAEAASK_]”, the collision cross section under setting [4] is on record as 404.34 ± 0.36 Å² and the collision cross section under setting [5] is reported as 453.97 ± 1.1 Å².

For LTEKELAEAASK [_LTEK(Malonyl)ELAEAASK_], the collision cross section reads like this: under setting [6], 390.08 ± 1.1 Å²; under setting [7], 448.74 ± 2.2 Å².

Regarding “LTEKELAEAASK [_LTEK(Methyl (K))ELAEAASK_]”, the collision cross section runs as follows: under setting [8], 392.99 ± 1 Å²; under setting [9], 445.12 ± 4.9 Å².

The sequence “LTEKELAEAASK [_LTEK(Propionyl)ELAEAASK_]” registered a collision cross section under setting [10] of 389.08 ± 0.49 Å².

On to LTEKELAEAASK [_LTEK(Succinyl)ELAEAASK_], for which the collision cross section turned out to be 389.23 ± 1.1 Å² under setting [11] and 454.1 Å² under setting [12].

Turning to “LTEKELAEAASK [_LTEK(Trimethyl (K))ELAEAASK_]”, the collision cross section by setting is: under setting [13], 406.14 ± 0.61 Å²; under setting [14], 451.11 ± 2.4 Å².

Take “LTEKELAEAASK [_LTEK(hydroxyisobutyryl)ELAEAASK_]”: the collision cross section was found to be 392.48 ± 2 Å² under setting [15] and 455.87 ± 2.2 Å² under setting [16].

As to “LTSLNVKYNNDK [_LTSLNVK(Acetyl (K))YNNDK_]”, the collision cross section under setting [19] is 407.77 ± 1 Å².

LTSLNVKYNNDK [_LTSLNVK(Butyryl)YNNDK_] registered a collision cross section under setting [21] of 414.27 ± 0.78 Å².

For LTSLNVKYNNDK [_LTSLNVK(Crotonyl)YNNDK_], the collision cross section under setting [22] is given as 414.39 ± 1.1 Å².

For “LTSLNVKYNNDK [_LTSLNVK(Dimethyl (K))YNNDK_]”, the collision cross section is, setting by setting: under setting [23], 409.23 ± 0.76 Å²; under setting [24], 464.81 ± 1.6 Å².

LTSLNVKYNNDK [_LTSLNVK(Formyl)YNNDK_]: the collision cross section under setting [1] came to 404.27 ± 0.2 Å².

Take “LTSLNVKYNNDK [_LTSLNVK(Gluratylation)YNNDK_]”: under setting [2], the collision cross section was 413.21 ± 1.1 Å².

For the sequence “LTSLNVKYNNDK [_LTSLNVK(GlyGly (K))YNNDK_]”, the collision cross section is, setting by setting: under setting [4], 424.54 ± 1.4 Å²; under setting [5], 491.6 ± 1.1 Å².

Take LTSLNVKYNNDK [_LTSLNVK(Malonyl)YNNDK_]: under setting [6], the collision cross section came out at 402.04 ± 0.61 Å².

For the sequence “LTSLNVKYNNDK [_LTSLNVK(Methyl (K))YNNDK_]”, the collision cross section under setting [8] came to 408.99 ± 1.4 Å² and the collision cross section under setting [9] is reported as 486.12 ± 3.3 Å².
